Assay [1] concerns the target T1, human pyruvate dehydrogenase (E1p) component, heterotetramer alpha2beta2 (Homo sapiens, UniProt P08559+P11177).
T1 sequence (P08559 30-390): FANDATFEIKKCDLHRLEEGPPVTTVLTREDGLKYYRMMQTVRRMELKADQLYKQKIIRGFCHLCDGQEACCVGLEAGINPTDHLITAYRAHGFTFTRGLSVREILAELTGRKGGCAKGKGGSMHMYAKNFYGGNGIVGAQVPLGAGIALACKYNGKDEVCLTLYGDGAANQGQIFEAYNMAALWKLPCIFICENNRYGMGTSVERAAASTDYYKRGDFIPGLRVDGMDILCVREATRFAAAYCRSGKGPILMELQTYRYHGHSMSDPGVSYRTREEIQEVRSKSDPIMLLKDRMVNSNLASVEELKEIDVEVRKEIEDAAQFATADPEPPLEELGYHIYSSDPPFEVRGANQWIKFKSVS
T1 sequence (P11177 31-359): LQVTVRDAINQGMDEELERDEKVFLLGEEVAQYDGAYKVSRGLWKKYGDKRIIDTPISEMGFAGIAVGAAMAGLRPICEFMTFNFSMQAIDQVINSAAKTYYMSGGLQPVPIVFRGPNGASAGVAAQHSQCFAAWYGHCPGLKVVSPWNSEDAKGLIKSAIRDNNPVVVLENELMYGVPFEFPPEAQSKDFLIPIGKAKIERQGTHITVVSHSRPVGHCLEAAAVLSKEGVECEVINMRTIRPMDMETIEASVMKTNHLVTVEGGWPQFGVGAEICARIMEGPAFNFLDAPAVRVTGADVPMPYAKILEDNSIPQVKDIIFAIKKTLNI
As to the kind of experiment: tryptophan fluorescence quenching. Format: binding.

Assay [2] concerns the target T2, human pyruvate dehydrogenase (E1p) component, heterotetramer alpha2beta2 (Homo sapiens, UniProt P08559+P11177, P08559:Y118F).
T2 sequence (P08559 30-390 Y118F): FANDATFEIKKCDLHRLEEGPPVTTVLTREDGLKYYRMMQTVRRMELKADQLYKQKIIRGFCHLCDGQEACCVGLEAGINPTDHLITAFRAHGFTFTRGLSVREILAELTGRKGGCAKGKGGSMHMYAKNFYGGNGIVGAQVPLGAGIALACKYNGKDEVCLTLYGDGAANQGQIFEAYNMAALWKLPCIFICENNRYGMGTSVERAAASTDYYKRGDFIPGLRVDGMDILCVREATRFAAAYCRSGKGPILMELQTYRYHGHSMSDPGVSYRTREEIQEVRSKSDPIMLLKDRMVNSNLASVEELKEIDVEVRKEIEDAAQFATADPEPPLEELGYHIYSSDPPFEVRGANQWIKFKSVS
T2 sequence (P11177 31-359): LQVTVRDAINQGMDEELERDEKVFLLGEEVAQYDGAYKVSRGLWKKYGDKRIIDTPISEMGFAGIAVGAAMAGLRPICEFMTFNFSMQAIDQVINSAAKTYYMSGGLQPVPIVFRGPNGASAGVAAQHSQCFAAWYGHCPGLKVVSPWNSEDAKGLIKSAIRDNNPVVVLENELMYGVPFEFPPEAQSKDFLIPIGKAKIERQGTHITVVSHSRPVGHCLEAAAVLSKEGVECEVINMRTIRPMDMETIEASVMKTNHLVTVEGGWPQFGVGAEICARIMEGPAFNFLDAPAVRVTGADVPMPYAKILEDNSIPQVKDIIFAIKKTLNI
As to the kind of experiment: tryptophan fluorescence quenching. Format: binding.

Assay [3] deals with T3, E1p-α subunit of Y89F-α mutant E1p (human, UniProt P08559 30-390, Y89F-α).
T3 sequence: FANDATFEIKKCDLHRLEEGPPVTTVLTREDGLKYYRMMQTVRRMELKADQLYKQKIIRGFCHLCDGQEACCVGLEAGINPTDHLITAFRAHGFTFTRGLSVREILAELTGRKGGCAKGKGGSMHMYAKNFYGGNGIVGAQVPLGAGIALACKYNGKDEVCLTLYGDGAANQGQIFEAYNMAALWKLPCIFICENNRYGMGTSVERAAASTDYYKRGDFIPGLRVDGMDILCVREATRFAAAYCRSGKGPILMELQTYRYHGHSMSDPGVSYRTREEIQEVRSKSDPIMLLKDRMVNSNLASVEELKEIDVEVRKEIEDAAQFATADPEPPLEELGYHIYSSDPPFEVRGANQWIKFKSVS
As to the kind of experiment: crystal structure.

Assay [4] deals with T4, E1p-α subunit of wild-type human E1p (human, UniProt P08559 30-390).
T4 sequence: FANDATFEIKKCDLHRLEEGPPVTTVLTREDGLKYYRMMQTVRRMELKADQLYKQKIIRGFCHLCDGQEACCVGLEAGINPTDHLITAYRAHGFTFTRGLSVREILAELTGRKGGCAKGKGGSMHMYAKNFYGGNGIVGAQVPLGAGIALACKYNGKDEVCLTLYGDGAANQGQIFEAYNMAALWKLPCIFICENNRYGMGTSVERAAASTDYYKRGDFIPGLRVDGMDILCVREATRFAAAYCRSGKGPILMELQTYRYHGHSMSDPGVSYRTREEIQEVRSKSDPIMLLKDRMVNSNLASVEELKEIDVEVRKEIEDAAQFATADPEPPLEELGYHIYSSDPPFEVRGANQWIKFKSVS
As to the kind of experiment: crystal structure.

Assay [5] concerns the target T5, E1p-α subunit of S1-E1p (S271A-α, S203A-α) (human, UniProt P08559 30-390, S271A-α | S203A-α).
T5 sequence: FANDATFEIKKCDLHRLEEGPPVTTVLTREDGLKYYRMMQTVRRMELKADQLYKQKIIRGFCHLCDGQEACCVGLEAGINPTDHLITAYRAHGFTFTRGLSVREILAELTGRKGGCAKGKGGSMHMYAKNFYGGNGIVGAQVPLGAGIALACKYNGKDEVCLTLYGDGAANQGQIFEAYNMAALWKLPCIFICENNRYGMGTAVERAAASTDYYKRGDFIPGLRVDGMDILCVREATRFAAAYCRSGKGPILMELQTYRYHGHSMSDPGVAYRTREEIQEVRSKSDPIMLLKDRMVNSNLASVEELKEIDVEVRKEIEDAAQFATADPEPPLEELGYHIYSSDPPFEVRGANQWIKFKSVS
As to the kind of experiment: crystal structure.

Consider `Cc1ncc(C[n+]2csc(CCO[P@](=O)(O)OP(=O)(O)O)c2C)c(N)n1` [ThDP], for which the dissociation constant Kd in assay [1] was 0.11 ± 0.01 µM; in assay [2] it was 50.2 ± 4.6 µM.

B1: E1p-β subunit of human E1p (natural protein)
chain: LQVTVRDAINQGMDEELERDEKVFLLGEEVAQYDGAYKVSRGLWKKYGDKRIIDTPISEMGFAGIAVGAAMAGLRPICEFMTFNFSMQAIDQVINSAAKTYYMSGGLQPVPIVFRGPNGASAGVAAQHSQCFAAWYGHCPGLKVVSPWNSEDAKGLIKSAIRDNNPVVVLENELMYGVPFEFPPEAQSKDFLIPIGKAKIERQGTHITVVSHSRPVGHCLEAAAVLSKEGVECEVINMRTIRPMDMETIEASVMKTNHLVTVEGGWPQFGVGAEICARIMEGPAFNFLDAPAVRVTGADVPMPYAKILEDNSIPQVKDIIFAIKKTLNI
Regarding B1, the binding result in assay [3], in assay [4] and in assay [5] was “binds” each time.

(Values after article PMC2849990 (Structure (London, England : 1993), 2008).)
